Data as given in the Human Domainome abundance scans (Beltran et al. 2025).
± gives the uncertainty stated by the source.

B1: Homeobox protein cut-like 1, residues 941 to 1008; numbered along this chain, P39880 (parent)
chain: QEVDTIELTRQVKEKLAKNGICQRIFGEKVLGLSQGSVSDMLSRPKPWSKLTQKGREPFIRMQLWLNG

Variants of: B1
Experiment: abundance fitness (aPCA) (normalised: wild type 0, dead -1); higher = more abundant; growth selection in yeast, the domain comes from the species named
Conditions: Homo sapiens

Row | Variant | abundance fitness
1 | QEVDTIELTRQVKEKLAKNGICQRIFGEKVLGLSQGSVSDMLSRPKPWSKLTQKGREPFIRMQYWLNG | 0.005 ± 0.1
2 | QEVDTIELTRQVKEKLAKNGICQRIFGEKVLGLSQGSVSDMLSRPKPWSKCTQKGREPFIRMQLWLNG | -0.439 ± 0.09
3 | QEVDTIELTRQVTEKLAKNGICQRIFGEKVLGLSQGSVSDMLSRPKPWSKLTQKGREPFIRMQLWLNG | -0.146 ± 0.063
4 | QEVDTIELTRQVVEKLAKNGICQRIFGEKVLGLSQGSVSDMLSRPKPWSKLTQKGREPFIRMQLWLNG | -0.392 ± 0.046
5 | QEVDTMELTRQVKEKLAKNGICQRIFGEKVLGLSQGSVSDMLSRPKPWSKLTQKGREPFIRMQLWLNG | 0.06 ± 0.059
6 | QEVDTIELTRQVKEKLAKNGICQRIFGEKVLGLSQGSVSDMLSRPKPWSKLTQKGDEPFIRMQLWLNG | -1.13 ± 0.22
7 | QEVDTIELTRQVKEKLAKNGICQRIFGEKVLGLSQGSVSDMLSRPKPWSKLTQKGTEPFIRMQLWLNG | -0.373 ± 0.082
8 | QEVDTIELTRQVKEKLAKNGICQRIFGGKVLGLSQGSVSDMLSRPKPWSKLTQKGREPFIRMQLWLNG | -0.072 ± 0.059
9 | QEVDTIELTRQVKEKLAKNGICQRIFGEKVLGLLQGSVSDMLSRPKPWSKLTQKGREPFIRMQLWLNG | -0.113 ± 0.049
10 | QEVDTIELTRQVKEKLAKNGICQRIFGEKVLGLFQGSVSDMLSRPKPWSKLTQKGREPFIRMQLWLNG | 0.008 ± 0.091
11 | QEVDTIELTRQVKEKLAKNGICQRIFGEKVLGLAQGSVSDMLSRPKPWSKLTQKGREPFIRMQLWLNG | -0.01 ± 0.076
12 | QEVDTIELTRQVKEKLAKNGICQRIFGEKVLGLSQGSVSDMLSRPKPWSKLTQKGREPFIRMQLWKNG | -0.63 ± 0.084
13 | QEVDTIELTRQVKEKLAKNGICQRIFGEKVLGLSQGSVSDMLSRPKPWSKLTQKGREPFIRMQLWVNG | -0.223 ± 0.061
14 | QEVDTIELTRQVKEKLAFNGICQRIFGEKVLGLSQGSVSDMLSRPKPWSKLTQKGREPFIRMQLWLNG | -0.287 ± 0.089
15 | QEVDTIELTRQVKEKLADNGICQRIFGEKVLGLSQGSVSDMLSRPKPWSKLTQKGREPFIRMQLWLNG | -0.397 ± 0.11
16 | QEVDTIELTRQVKEKLAKNGYCQRIFGEKVLGLSQGSVSDMLSRPKPWSKLTQKGREPFIRMQLWLNG | 0.019 ± 0.098
17 | QEVDTIELTRQVKEKLAKNGICQRIFGEKVVGLSQGSVSDMLSRPKPWSKLTQKGREPFIRMQLWLNG | -0.242 ± 0.049
18 | QEVDTIELTRQVKEKLAKNGICQRIFGEKVCGLSQGSVSDMLSRPKPWSKLTQKGREPFIRMQLWLNG | -0.255 ± 0.098
19 | QEVDTIELTRQVKEKLAKNGICQRIFGEKVDGLSQGSVSDMLSRPKPWSKLTQKGREPFIRMQLWLNG | -0.425 ± 0.086
20 | QEVDTIELTRQEKEKLAKNGICQRIFGEKVLGLSQGSVSDMLSRPKPWSKLTQKGREPFIRMQLWLNG | -0.113 ± 0.069

Row | Variant | abundance fitness
21 | QEVDTIELTRQVKEKLAKNFICQRIFGEKVLGLSQGSVSDMLSRPKPWSKLTQKGREPFIRMQLWLNG | -0.239 ± 0.11
22 | QEVDTIELTRQVKEKLAKNWICQRIFGEKVLGLSQGSVSDMLSRPKPWSKLTQKGREPFIRMQLWLNG | -0.287 ± 0.079
23 | QEVDTIELTRQVKEKLAKNGICQRIFGEKVLGLSQGSVSDMLSRPKPWSKLTQKGREPFIRMVLWLNG | -0.262 ± 0.056
24 | QEVDQIELTRQVKEKLAKNGICQRIFGEKVLGLSQGSVSDMLSRPKPWSKLTQKGREPFIRMQLWLNG | -0.086 ± 0.065
25 | QEVDGIELTRQVKEKLAKNGICQRIFGEKVLGLSQGSVSDMLSRPKPWSKLTQKGREPFIRMQLWLNG | -0.329 ± 0.05
26 | QEVDLIELTRQVKEKLAKNGICQRIFGEKVLGLSQGSVSDMLSRPKPWSKLTQKGREPFIRMQLWLNG | -0.135 ± 0.045
27 | QEVDTIELTRQVKEKLAKNGICQRIFGEKVLGLSQGSVSDMLSRPKPWSKLTQKGREPFIVMQLWLNG | -0.487 ± 0.066
28 | QEVDTIELTRQVKEKLAKNGICQRIFGECVLGLSQGSVSDMLSRPKPWSKLTQKGREPFIRMQLWLNG | -0.148 ± 0.088
29 | QEVDTIELTRQVKEKLAKNGICQRIFGEKVLGLSQNSVSDMLSRPKPWSKLTQKGREPFIRMQLWLNG | -0.014 ± 0.088
30 | QEVDTIELTRQVKEKLAKNGICQRIFGEKVLGLSQPSVSDMLSRPKPWSKLTQKGREPFIRMQLWLNG | -0.055 ± 0.062
31 | QEVDTIALTRQVKEKLAKNGICQRIFGEKVLGLSQGSVSDMLSRPKPWSKLTQKGREPFIRMQLWLNG | 0.14 ± 0.47
32 | QEVDTIELTRQVKEKLAKNGICQRIFGEKVLGLSQGSVSDMLSRPKPWSWLTQKGREPFIRMQLWLNG | -0.247 ± 0.068
33 | QEVDTIELTRQVKLKLAKNGICQRIFGEKVLGLSQGSVSDMLSRPKPWSKLTQKGREPFIRMQLWLNG | -0.152 ± 0.059
34 | QEVDTIELTRQVKEKLAKNGICQRIFGEKVLGLSQGSVSDMLSRPKPWSKLTQKPREPFIRMQLWLNG | -0.517 ± 0.082
35 | QEVDTIELTRQVKEKLAKNGICQRIFGEKVLGLSQGSVSDMLSHPKPWSKLTQKGREPFIRMQLWLNG | -0.125 ± 0.1
36 | QEVDTIELTRQVKEKLAKNGICQRIFGEKVLGLSQGSVSDMLSYPKPWSKLTQKGREPFIRMQLWLNG | -0.029 ± 0.099
37 | QEVDTIELTRQVKEKLAKNGICQRICGEKVLGLSQGSVSDMLSRPKPWSKLTQKGREPFIRMQLWLNG | -0.709 ± 0.099
38 | QEVDTIELTRQVKEKLAKNGICQRIAGEKVLGLSQGSVSDMLSRPKPWSKLTQKGREPFIRMQLWLNG | -0.649 ± 0.075
39 | QEVDTIELTRQVKEKLAKNGICQRIHGEKVLGLSQGSVSDMLSRPKPWSKLTQKGREPFIRMQLWLNG | -0.927 ± 0.15
